What was measured:
[1] = molecular target: N-terminal part of human α2-macroglobulin (N-hα2M) (human) (UniProt P01023); assay: not stated; apparent mass of the purified hα2M fragments without reducing agents; method not named
[2] = molecular target: the molecule itself; assay: SEC; Superose 6 10/300, buffer D (20 mM Tris-HCl, 150 mM sodium chloride, pH 7.5); data not shown
[3] = molecular target: the molecule itself; assay: SEC; Superose 6 10/300 (full-length recombinant hα2M) or Superdex 75 10/300 (pro-TGF-β2), buffer D (20 mM Tris-HCl, 150 mM sodium chloride, pH 7.5)

N-terminal part of human α2-macroglobulin (N-hα2M) (from UniProt P01023 24-788) (domain or fragment)
stoichiometry N [1]: 2

B1: recombinant full-length human α2-macroglobulin from S2 cells (natural protein)
chain: SVSGKPQYMVLVPSLLHTETTEKGCVLLSYLNETVTVSASLESVRGNRSLFTDLEAENDVLHCVAFAVPKSSSNEEVMFLTVQVKGPTQEFKKRTTVMVKNEDSLVFVQTDKSIYKPGQTVKFRVVSMDENFHPLNELIPLVYIQDPKGNRIAQWQSFQLEGGLKQFSFPLSSEPFQGSYKVVVQKKSGGRTEHPFTVEEFVLPKFEVQVTVPKIITILEEEMNVSVCGLYTYGKPVPGHVTVSICRKYSDASDCHGEDSQAFCEKFSGQLNSHGCFYQQVKTKVFQLKRKEYEMKLHTEAQIQEEGTVVELTGRQSSEITRTITKLSFVKVDSHFRQGIPFFGQVRLVDGKGVPIPNKVIFIRGNEANYYSNATTDEHGLVQFSINTTNVMGTSLTVRVNYKDRSPCYGYQWVSEEHEEAHHTAYLVFSPSKSFVHLEPMSHELPCGHTQTVQAHYILNGGTLLGLKKLSFYYLIMAKGGIVRTGTHGLLVKQEDMKGHFSISIPVKSDIAPVARLLIYAVLPTGDVIGDSAKYDVENCLANKVDLSFSPSQSLPASHAHLRVTAAPQSVCALRAVDQSVLLMKPDAELSASSVYNLLPEKDLTGFPGPLNDQDNEDCINRHNVYINGITYTPVSSTNEKDMYSFLEDMGLKAFTNSKIRKPKMCPQLQQYEMHGPEGLRVGFYESDVMGRGHARLVHVEEPHTETVRKYFPETWIWDLVVVNSAGVAEVGVTVPDTITEWKAGAFCLSEDAGLGISSTASLRAFQPFFVELTMPYSVIRGEAFTLKATVLNYLPKCIRVSVQLEASPAFLAVPVEKEQAPHCICANGRQTVSWAVTPKSLGNVNFTVSAEALESQELCGTEVPSVPEHGRKDTVIKPLLVEPEGLEKETTFNSLLCPSGGEVSEELSLKLPPNVVEESARASVSVLGDILGSAMQNTQNLLQMPYGCGEQNMVLFAPNIYVLDYLNETQQLTPEIKSKAIGYLNTGYQRQLNYKHYDGSYSTFGERYGRNQGNTWLTAFVLKTFAQARAYIFIDEAHITQALIWLSQRQKDNGCFRSSGSLLNNAIKGGVEDEVTLSAYITIALLEIPLTVTHPVVRNALFCLESAWKTAQEGDHGSHVYTKALLAYAFALAGNQDKRKEVLKSLNEEAVKKDNSVHWERPQKPKAPVGHFYEPQAPSAEVEMTSYVLLAYLTAQPAPTSEDLTSATNIVKWITKQQNAQGGFSSTQDTVVALHALSKYGAATFTRTGKAAQVTIQSSGTFSSKFQVDNNNRLLLQQVSLPELPGEYSMKVTGEGCVYLQTSLKYNILPEKEEFPFALGVQTLPQTCDEPKAHTSFQISLSVSYTGSRSASNMAIVDVKMVSGFIPLKPTVKMLERSNHVSRTEVSSNHVLIYLDKVSNQTLSLFFTVLQDVPVRDLKPAIVKVYDYYETDEFAIAEYNAPCSKDLGNPTG
notes: human α2-macroglobulin, UniProt P01023, residues S24-N1473; residues from the construct before the His6-tag; Found in the induced form; also called recombinant hα2M from S2 cells; pIE-hα2M-H6; source: Drosophila S2 cells, transiently transfected, secreted (AKH signal peptide), purified (Ni-NTA, IEC, SEC); not shown: His6, C-terminal, kept
stoichiometry N [2]: 4

B2: Strep-tagged latent human transforming growth factor-β2 (pro-TGF-β2) (natural protein)
chain: LSLSTCSTLDMDQFMRKRIEAIRGQILSKLKLTSPPEDYPEPEEVPPEVISIYNSTRDLLQEKASRRAAACERERSDEEYYAKEVYKIDMPPFFPSENAIPPTFYRPYFRIVRFDVSAMEKNASNLVKAEFRVFRLQNPKARVPEQRIELYQILKSKDLTSPTQRYIDSKVVKTRAEGEWLSFDVTDAVHEWLHHKDRNLGFKISLHCPCCTFVPSNNYIIPNKSEELEARFAGIDGTSTYTSGDQKTIKSTRKKNSGKTPHLLLMLLPSYRLESQQTNRRKKRALDAAYCFRNVQDNCCLRPLYIDFKRDLGWKWIHEPKGYNANFCAGACPYLWSSDTQHSRVLSLYNTINPEASASPCCVSQDLEPLTILYYIGKTPKIEQLSNMIVKSCKCS
notes: residues from the construct between the tag and L21; human pro-TGF-β2 (LAP plus mature TGF-β2), UniProt P61812, residues L21-S414; The purified protein was partially cleaved before A303 by host peptidases; also called Strep-tagged pro-TGF-β2; pS6-TGFB2-STREP; not shown: Strep-tag, N-terminal, kept
stoichiometry N [3]: 2
